According to US20210388087A1 (Chugai, published 2021):
Positions count from the first letter of the chain named. Numbers in names are those of the source.

T1: Human CD3eg linker (human)
T1 construct: Single-chain construct; also called recombinant human CD3
T1 chain: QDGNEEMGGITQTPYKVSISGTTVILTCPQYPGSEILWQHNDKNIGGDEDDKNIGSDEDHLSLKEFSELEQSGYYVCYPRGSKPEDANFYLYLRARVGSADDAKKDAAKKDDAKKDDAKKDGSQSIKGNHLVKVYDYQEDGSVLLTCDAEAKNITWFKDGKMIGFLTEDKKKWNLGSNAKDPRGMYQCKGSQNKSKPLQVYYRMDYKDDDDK

B1: H183/L072 VL S26T (antibody, name in Kabat numbering, V domains shown)
VH: QVQLVESGGGLVQPGRSLRLSCAASGFTFSNAWMHWVRQAPGKGLEWVAQIKDKGNAYAAYYAPSVKGRFTISRDDSKNSIYLQMNSLKTEDTAVYYCHYVHYASASTVLPAFGVDAWGQGTTVTVSS
VL: DIVMTQSPLSLPVTPGEPASISCQATQELVHMNRNTYLHWYQQKPGQAPRLLIYKVSNRFPGVPDRFSGSGSGTDFTLKISRVEAEDVGVYYCAQGTSVPFTFGQGTKLEIK
B2: H183/L072 VL S52H (antibody, name in Kabat numbering, V domains shown)
VH: B1 VH
VL: B1 VL with T26S, S57H
B3: H183/L072 VL S93F (antibody, name in Kabat numbering, V domains shown)
VH: B1 VH
VL: B1 VL with T26S, S98F
B4: H183/L072 VL S52F (antibody, name in Kabat numbering, V domains shown)
VH: B1 VH
VL: B1 VL with T26S, S57F
B5: H183/L072 VL S52G (antibody, name in Kabat numbering, V domains shown)
VH: B1 VH
VL: B1 VL with T26S, S57G
B6: H183/L072 VL S52D (antibody, name in Kabat numbering, V domains shown)
VH: B1 VH
VL: B1 VL with T26S, S57D
B7: H183/L072 VL S93K (antibody, name in Kabat numbering, V domains shown)
VH: B1 VH
VL: B1 VL with T26S, S98K
B8: H183/L072 VL S93N (antibody, name in Kabat numbering, V domains shown)
VH: B1 VH
VL: B1 VL with T26S, S98N
B9: H183/L072 VL T31K (antibody, name in Kabat numbering, V domains shown)
VH: B1 VH
VL: B1 VL with T26S, T36K
B10: H183/L072 VL S93Q (antibody, name in Kabat numbering, V domains shown)
VH: B1 VH
VL: B1 VL with T26S, S98Q
B11: H183/L072 VL S26Y (antibody, name in Kabat numbering, V domains shown)
VH: B1 VH
VL: B1 VL with T26Y
B12: H183/L072 VL S93I (antibody, name in Kabat numbering, V domains shown)
VH: B1 VH
VL: B1 VL with T26S, S98I
B13: H183/L072 VL S52I (antibody, name in Kabat numbering, V domains shown)
VH: B1 VH
VL: B1 VL with T26S, S57I
B14: H183/L072 VL S26W (antibody, name in Kabat numbering, V domains shown)
VH: B1 VH
VL: B1 VL with T26W
B15: H183/L072 VL S52Q (antibody, name in Kabat numbering, V domains shown)
VH: B1 VH
VL: B1 VL with T26S, S57Q
B16: H183/L072 VL T31D (antibody, name in Kabat numbering, V domains shown)
VH: B1 VH
VL: B1 VL with T26S, T36D
B17: H183/L072 VL S93G (antibody, name in Kabat numbering, V domains shown)
VH: B1 VH
VL: B1 VL with T26S, S98G
B18: H183/L072 VL T31H (antibody, name in Kabat numbering, V domains shown)
VH: B1 VH
VL: B1 VL with T26S, T36H
B19: H183/L072 VL T31G (antibody, name in Kabat numbering, V domains shown)
VH: B1 VH
VL: B1 VL with T26S, T36G
B20: H183/L072 VL T31E (antibody, name in Kabat numbering, V domains shown)
VH: B1 VH
VL: B1 VL with T26S, T36E
B21: H183/L072 VL S93D (antibody, name in Kabat numbering, V domains shown)
VH: B1 VH
VL: B1 VL with T26S, S98D
B22: H183/L072 VL S93E (antibody, name in Kabat numbering, V domains shown)
VH: B1 VH
VL: B1 VL with T26S, S98E
B23: H183/L072 VL S52W (antibody, name in Kabat numbering, V domains shown)
VH: B1 VH
VL: B1 VL with T26S, S57W
B24: H183/L072 VL S52A (antibody, name in Kabat numbering, V domains shown)
VH: B1 VH
VL: B1 VL with T26S, S57A
B25: H183/L072 VL S93L (antibody, name in Kabat numbering, V domains shown)
VH: B1 VH
VL: B1 VL with T26S, S98L
B26: H183/L072 VL T31L (antibody, name in Kabat numbering, V domains shown)
VH: B1 VH
VL: B1 VL with T26S, T36L
B27: H183/L072 VL S26V (antibody, name in Kabat numbering, V domains shown)
VH: B1 VH
VL: B1 VL with T26V
B28: H183/L072 VL S52T (antibody, name in Kabat numbering, V domains shown)
VH: B1 VH
VL: B1 VL with T26S, S57T
B29: H183/L072 VL S52K (antibody, name in Kabat numbering, V domains shown)
VH: B1 VH
VL: B1 VL with T26S, S57K
B30: H183/L072 VL S93H (antibody, name in Kabat numbering, V domains shown)
VH: B1 VH
VL: B1 VL with T26S, S98H
B31: H183/L072 VL S52M (antibody, name in Kabat numbering, V domains shown)
VH: B1 VH
VL: B1 VL with T26S, S57M
B32: H183/L072 VL S93A (antibody, name in Kabat numbering, V domains shown)
VH: B1 VH
VL: B1 VL with T26S, S98A
B33: H183/L072 VL T31A (antibody, name in Kabat numbering, V domains shown)
VH: B1 VH
VL: B1 VL with T26S, T36A
B34: H183/L072 VL S93W (antibody, name in Kabat numbering, V domains shown)
VH: B1 VH
VL: B1 VL with T26S, S98W
B35: H183/L072 VL T31I (antibody, name in Kabat numbering, V domains shown)
VH: B1 VH
VL: B1 VL with T26S, T36I
B36: H183/L072 VL S93T (antibody, name in Kabat numbering, V domains shown)
VH: B1 VH
VL: B1 VL with T26S, S98T
B37: H183/L072 VL S52L (antibody, name in Kabat numbering, V domains shown)
VH: B1 VH
VL: B1 VL with T26S, S57L
B38: H183/L072 VL S93V (antibody, name in Kabat numbering, V domains shown)
VH: B1 VH
VL: B1 VL with T26S, S98V
B39: H183/L072 VL S52V (antibody, name in Kabat numbering, V domains shown)
VH: B1 VH
VL: B1 VL with T26S, S57V
B40: H183/L072 VL S52R (antibody, name in Kabat numbering, V domains shown)
VH: B1 VH
VL: B1 VL with T26S, S57R
B41: H183/L072 VL S93R (antibody, name in Kabat numbering, V domains shown)
VH: B1 VH
VL: B1 VL with T26S, S98R
B42: H183/L072 VL S52N (antibody, name in Kabat numbering, V domains shown)
VH: B1 VH
VL: B1 VL with T26S, S57N
B43: H183/L072 VL S52E (antibody, name in Kabat numbering, V domains shown)
VH: B1 VH
VL: B1 VL with T26S, S57E
B44: H183/L072 VL S93M (antibody, name in Kabat numbering, V domains shown)
VH: B1 VH
VL: B1 VL with T26S, S98M
B45: H183/L072 VL T31N (antibody, name in Kabat numbering, V domains shown)
VH: B1 VH
VL: B1 VL with T26S, T36N

Biological target: T1, Human CD3eg linker
Assay: SPR; fold vs parent H183/L072

First: B1
Second: B2
The “fold change of affinity” value of the first is lower: 1.4 fold for the first, 1.7 fold for the second.

Going from B3 to B4, the “fold change of affinity” value rises from 1 fold to 1.6 fold.

Going from B5 to B6, the “fold change of affinity” value falls from 1.4 fold to 1 fold.

First: B7
Second: B8
The “fold change of affinity” value of the first is higher: 1 fold for the first, 0.8 fold for the second.

First: B9
Second: B10
The “fold change of affinity” value of the first is lower: 0.4 fold for the first, 1 fold for the second.

Going from B11 to B12, the “fold change of affinity” value rises from 0.4 fold to 0.8 fold.

First: B13
Second: B14
The “fold change of affinity” value of the first is higher: 1.5 fold for the first, 0.3 fold for the second.

First: B15
Second: B16
The “fold change of affinity” value of the first is higher: 1.4 fold for the first, 0 fold for the second.

First: B17
Second: B18
The “fold change of affinity” value of the first is higher: 0.8 fold for the first, 0.1 fold for the second.

First: B19
Second: B20
The “fold change of affinity” value of the first is lower: 0 fold for the first, 0.4 fold for the second.

Going from B21 to B22, the “fold change of affinity” value rises from 0.7 fold to 1 fold.

Compared with B23, B24 is lower in “fold change of affinity” value: 1.4 fold for the first, 1.2 fold for the second.

First: B25
Second: B26
The “fold change of affinity” value of the first is higher: 0.9 fold for the first, 0 fold for the second.

Compared with B27, B28 is higher in “fold change of affinity” value: 0.6 fold for the first, 1.3 fold for the second.

Compared with B29, B30 is lower in “fold change of affinity” value: 1.9 fold for the first, 0.9 fold for the second.

Compared with B31, B32 is lower in “fold change of affinity” value: 1.4 fold for the first, 1.1 fold for the second.

Going from B33 to B34, the “fold change of affinity” value rises from 0.2 fold to 1.1 fold.

Going from B35 to B36, the “fold change of affinity” value rises from 0.7 fold to 1 fold.

First: B37
Second: B38
The “fold change of affinity” value of the first is higher: 1.6 fold for the first, 0.7 fold for the second.

First: B39
Second: B40
The “fold change of affinity” value of the first is lower: 1.6 fold for the first, 1.8 fold for the second.

Compared with B41, B42 is higher in “fold change of affinity” value: 1 fold for the first, 1.5 fold for the second.

B43 and B44 are the same in “fold change of affinity” value: 1 fold for the first, 1 fold for the second.

In the case of B45, the “fold change of affinity” value is reported as 0 fold.
